The supplement of paper PMC10724198
± gives the standard deviation of the averaged measurements.

Each sequence was assayed on Saccharomyces cerevisiae (assay: protein stability index of tFT-peptide fusion (C-terminal peptide) (PSI (0-1 scale)); higher = more stable (slower turnover)). Details: genetic background: wild type; temperature: 30 C.
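Also: PSI is a weighted mean of sequencing reads over stability bins, variants kept only with over 10 reads, mCherry proximal and sfGFP distal, peptide attached via GGGS linker.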

In order of falling protein stability index:
1. LSDLDSMVMIVP  0.869 ± 0.16
2. LPPPRSPPLPRL  0.802 ± 0.059
3. LPHSPHRAAYPN  0.8 ± 0.013
4. LPLSRPPLPPPL  0.786 ± 0.031
5. LSLLPFLRPPPI  0.774 ± 0.043
6. LPLPHPQPTPYP  0.756 ± 0.046
7. LRSCLARGLFFG  0.7426 ± 0.0066
8. LSFSFSPTSPPP  0.739 ± 0.072
9. LRLSASRLLPPP  0.736 ± 0.015
10. LPPPPLSPPSLV  0.734 ± 0.0078
11. LPSPALSRSDPT  0.729 ± 0.031
12. LPPSRSPPPFPL  0.728 ± 0.048
13. LRAWAAPPPHGL  0.727 ± 0.076
14. LRCFLESPRQST  0.724 ± 0.071
15. LRFRCGNSRILS  0.724 ± 0.044
16. LPPSSFPTPSPP  0.723 ± 0.08
17. LPRTALHSPSPY  0.723 ± 0.082
18. LRFGEGILLDWG  0.723 ± 0.043
19. LRPGRSKHSSQA  0.721 ± 0.044
20. LPPPPRPALSHR  0.72 ± 0.089
21. LPSHPHDRPPQT  0.719 ± 0.019
22. LPTSPQLPHAPS  0.7192 ± 0.0046
23. LPLPPLPPPSCP  0.718 ± 0.032
24. LRPCSSLPSTPP  0.718 ± 0.049
25. LRRPSPPAPPPP  0.718 ± 0.11
26. LRQVGTASSLRR  0.717 ± 0.045
27. LRYGSDQMERFI  0.717 ± 0.1
28. LPPPLSSPSSLR  0.7153 ± 0.0071
29. LRSAYGHCLQKI  0.715 ± 0.14
30. LPPVPRAYFSDT  0.714 ± 0.061
31. LPSGLTSPPRSS  0.712 ± 0.031
32. LPIARLPPPPPR  0.707 ± 0.1
33. LPLALLSPPFGS  0.707 ± 0.022
34. LRHLPRDVPSYI  0.7049 ± 0.0046
35. LPPPVFPLRLSL  0.703 ± 0.027
36. LPPSSCPPPPTP  0.702 ± 0.068
37. LPVPPPPPLPET  0.702 ± 0.061
38. LSLPPHSPPLHR  0.702 ± 0.04
39. LPYAMPGFHSTR  0.701 ± 0.037
40. LQASRHPASPST  0.701 ± 0.048
41. LRESPPHLPFPP  0.701 ± 0.039
42. LSDSLERVGGAF  0.701 ± 0.048
43. LPRPPPPSPPPP  0.7 ± 0.042
44. LPPLPPLAHHPA  0.699 ± 0.044
45. LSASHVMSLTNL  0.698 ± 0.028
46. LPPLAPSSPPRP  0.696 ± 0.033
47. LQFAQLLDISIT  0.696 ± 0.062
48. LPPSPLPPLPPP  0.6942 ± 0.0012
49. LPNPTSPSPQAA  0.693 ± 0.025
50. LRGVDSALCGAR  0.693 ± 0.082
51. LPPPPPAFLDSF  0.691 ± 0.065
52. LSCSPVFFPLQP  0.69 ± 0.0096
53. LPITTPLPPLDP  0.688 ± 0.02
54. LPPPSPPPIPSP  0.688 ± 0.06
55. LPRTPPPLAHGP  0.688 ± 0.041
56. LPRHKWLPSGLG  0.686 ± 0.056
57. LPSLDSVCLLFP  0.685 ± 0.026
58. LRRNHREPGYSK  0.684 ± 0.024
59. LPLHAPPPHRHP  0.683 ± 0.013
60. LPSPPRHPSAPR  0.683 ± 0.022
61. LSCRGVTIRYCW  0.683 ± 0.012
62. LPPCGQIVSLDT  0.68 ± 0.022
63. LPPRSPSPHPHR  0.68 ± 0.0078
64. LSLPQPHPPLKS  0.679 ± 0.029
65. LSAMVSYTRAPF  0.67811 ± 0.00065
66. LRPCVSHLHLQN  0.677 ± 0.18
67. LRSAPTLFTRPY  0.677 ± 0.0091
68. LPPSTYPASTPS  0.674 ± 0.054
69. LPPPLPLPSRHY  0.671 ± 0.06
70. LRGEGAGPEDVG  0.67 ± 0.029
71. LRARLTGRFIVG  0.669 ± 0.013
72. LPSLLIHLVSQT  0.668 ± 0.02
73. LPNLGWTNSSIE  0.667 ± 0.066
74. LRVQASALHVLQ  0.667 ± 0.021
75. LPVPLYPTPALL  0.666 ± 0.14
76. LQCRAEFQRARC  0.666 ± 0.031
77. LRGAWRISIEGG  0.666 ± 0.036
78. LSILSIHAHRAN  0.665 ± 0.099
79. LSLAPPPLLHHL  0.664 ± 0.02
80. LPPLLLPTRPLS  0.662 ± 0.12
81. LRREQIKEAKHR  0.66 ± 0.017
82. LRGTEMMSTSVV  0.656 ± 0.085
83. LPSPSYPAPVPN  0.65 ± 0.074
84. LRLSSYRAPRPR  0.649 ± 0.032
85. LQKNKIPTKKKD  0.647 ± 0.0097
86. LSGWVLVGNWGN  0.647 ± 0.036
87. LSCQWNSDSLGV  0.644 ± 0.1
88. LRSLRFALFPPA  0.642 ± 0.083
89. LPPRPGFLSSLP  0.64 ± 0.082
90. LPSPRIPLTSQS  0.638 ± 0.031
91. LPTSSTRVEFSV  0.638 ± 0.045
92. LPTPSLPPLPFH  0.623 ± 0.058
93. LPPLLGPSPCPP  0.604 ± 0.015
94. LPPPPPPLPHPP  0.597 ± 0.083
95. LSFWGLLSFWTP  0.594 ± 0.02
96. LSARAKRTVTFL  0.593 ± 0.043
97. LRVQFFFLAGCT  0.584 ± 0.006
98. LPPALAPLPPPL  0.572 ± 0.021
99. LSLLKPLALCES  0.559 ± 0.032
100. LQCCVAVTNYCV  0.54 ± 0.016
101. LPHYLAFPFFMI  0.499 ± 0.08
